# B1: Circadian clock oscillator protein KaiC (Synechococcus elongatus (strain PCC 7942)), Q79PF4 (parent)
# chain: MTSAEMTSPNNNSEHQAIAKMRTMIEGFDDISHGGLPIGRSTLVSGTSGTGKTLFSIQFLYNGIIEFDEPGVFVTFEETPQDIIKNARSFGWDLAKLVDEGKLFILDASPDPEGQEVVGGFDLSALIERINYAIQKYRARRVSIDSVTSVFQQYDASSVVRRELFRLVARLKQIGATTVMTTERIEEYGPIARYGVEEFVSDNVVILRNVLEGERRRRTLEILKLRGTSHMKGEYPFTITDHGINIFPLGAMRLTQRSSNVRVSSGVVRLDEMCGGGFFKDSIILATGATGTGKTLLVSRFVENACANKERAILFAYEESRAQLLRNAYSWGMDFEEMERQNLLKIVCAYPESAGLEDHLQIIKSEINDFKPARIAIDSLSALARGVSNNAFRQFVIGVTGYAKQEEITGLFTNTSDQFMGAHSITDSHISTITDTIILLQYVEIRGEMSRAINVFKMRGSWHDKAIREFMISDKGPDIKDSFRNFERIISGSPTRITVDEKSELSRIVRGVQEKGPES
# partner: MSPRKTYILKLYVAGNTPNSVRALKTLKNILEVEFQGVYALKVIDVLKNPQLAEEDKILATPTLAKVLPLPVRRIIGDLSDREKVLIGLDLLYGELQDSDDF
# B2: Circadian clock oscillator protein KaiC (Synechococcus elongatus (strain PCC 7942)), Q79PF4 (parent)
# chain: B1 chain
# partner: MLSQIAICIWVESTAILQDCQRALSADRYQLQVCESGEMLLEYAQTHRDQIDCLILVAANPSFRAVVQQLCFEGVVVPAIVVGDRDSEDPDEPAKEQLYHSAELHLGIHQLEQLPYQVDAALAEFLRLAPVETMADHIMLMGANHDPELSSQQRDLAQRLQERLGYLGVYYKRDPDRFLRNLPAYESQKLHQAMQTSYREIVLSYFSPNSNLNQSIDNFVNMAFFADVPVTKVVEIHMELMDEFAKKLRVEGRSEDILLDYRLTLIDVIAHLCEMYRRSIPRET
# Variants of: B1
# Conditions: with kaib_syne7 kaiB
row,Variant,effect of a mutation on the interaction
1,S431A,disrupting interaction strength
2,S431D;T432A,disrupting interaction strength
3,S431A;T432E,disrupting interaction strength
4,S431A;T432A,disrupting interaction strength

# Variants of: B2
# Conditions: with kaia_syne7 kaiA
row,Variant,effect of a mutation on the interaction
1,S431E;T432E,increasing interaction strength
2,S431A;T432A,decreasing interaction strength
